Assay results reported in paper PMC4742278, “BS69/ZMYND11 C-Terminal Domains Bind and Inhibit EBNA2” (PLoS Pathogens, 2016).

B1: BS69CC-MYND: residues 440–562 of BS69/ZMYND11, tandem coiled-coil-MYND domains (protein, UniProt Q15326 440-562, looked up, fragment)
chain: TKKLSASSPRMLHRSTQTTNDGVCQSMCHDKYTKIFNDFKDRMKSDHKRETERVVREALEKLRSEMEEEKRQAVNKAVANMQGEMDRKCKQVKEKCKEEFVEEIKKLATQHKQLISQTKKKQW
modifications: coiled-coil-MYND domain FLAG tag
notes: residues 440–562 of BS69/ZMYND11, tandem coiled-coil-MYND domains
B2: BS69: emerging tumor suppressor, Adenovirus protein E1A and EBNA2-interacting protein (protein, UniProt Q15326 1-602, looked up)
Zinc finger MYND …: MARLTKRRQADTKAIQHLWAAIEIIRNQKQIANIDRITKYMSRVHGMHPKETTRQLSLAVKDGLIVETLTVGCKGSKAGIEQEGYWLPGDEIDWETENHDWYCFECHLPGEVLICDLCFRVYHSKCLSDEFRLRDSSSPWQCPVCRSIKKKNTNKQEMGTYLRFIVSRMKERAIDLNKKGKDNKHPMYRRLVHSAVDVPTIQEKVNEGKYRSYEEFKADAQLLLHNTVIFYGADSEQADIARMLYKDTCHELDELQLCKNCFYLSNARPDNWFCYPCIPNHELVWAKMKGFGFWPAKVMQKEDNQVDVRFFGHHHQRAWIPSENIQDITVNIHRLHVKRSMGWKKACDELELHQRFLREGRFWKSKNEDRGEEEAESSISSTSNEQLKVTQEPRAKKGRRNQSVEPKKEEPEPETEAVSSSQEIPTMPQPIEKVSVSTQTKKLSASSPRMLHRSTQTTNDGVCQSMCHDKYTKIFNDFKDRMKSDHKRETERVVREALEKLRSEMEEEKRQAVNKAVANMQGEMDRKCKQVKEKCKEEFVEEIKKLATQHKQLISQTKKKQWCYNCEEEAMYHCCWNTSYCSIKCQQEHWHAEHKRTCRRKR

Tests used:
[1] = system: LMP1-Luc reporter, EBNA2-mediated transcriptional activation; experiment: LMP1-Luc reporter assay (EBNA2-mediated transcription) in BJAB cells; assay type: cell-based, Epstein-Barr virus; details: 10 μg EBNA2 vector, 5 μg flag-BS69CC-MYND plasmid, 5 μg reporter
Description: (§1) Cell culture and reporter gene assays for EBNA2-mediated transcription activation
(§2) The BS69CC-MYND dual domain, wild-type or the Q546A mutant, were inserted into a pCBS/FLAG mammalian expression vector [54], in which the BS69 fragments are preceded by a FLAG-tag. In the case of the Q546A/W550A BS69CC-MYND expression plasmid, the flanking DNA fragment was subcloned into the pSG5-Flag vector [55]. The EBNA2 expression vector harboring PXLXP1 or PXLXP2 mutations was generated by carrying out the PCR-based mutagenesis protocol provided by the manufactory (Stratagene). In each case, the codons of two prolines were replaced with the codons of alanine simultaneously. For EBNA2-dependent transcription reporter assays, 10 μg of the expression vector of EBNA2 (E2), 5 μg flag-BS69CC- MYND wild type, or Q546A plasmid, and 5 μg LMP1-Luc or Cp-Luc reporter plasmid, and 1 μg CMV-βGal control plasmid were co-transfected into BJAB cells following the protocol as described previously. For the parallel control, 10 μg EBNA1 expression plasmid and 5 μg OriP-Luc reporter plasmid were used instead. Luciferase and β-Gal activities were assayed by Orion L (Berthold). A DNA fragment encoding residues 375–465 of EBNA2 from EBV W91 strain [49] containing CR7 and CR8 of EBNA2 were inserted into pCD-Gal4(1–147) vector to generate pCD-Gal4-EBNA2(375–465), which encodes a GAL4-EBNA2 fusion protein. […]

[2] = system: Cp-Luc reporter, EBNA2-mediated transcriptional activation; experiment: Cp-Luc reporter assay (EBNA2-mediated transcription) in BJAB cells; assay type: cell-based, Epstein-Barr virus; details: 10 μg EBNA2 vector, 5 μg flag-BS69CC-MYND plasmid, 5 μg reporter
Description: as §1, §2

EBNA2 [3] = experiment: Co-immunoprecipitation of EBNA2 with flag-BS69CC-MYND in BJAB cells; assay type: cell-based, Epstein-Barr virus; details: anti-flag M2 IP, Western blot
Description: To address whether the BS69 C-terminal domain, if expressed, interacts with EBNA2 in vivo, we ectopically co-expressed flag-tagged wild-type, Q546A, or Q546A/W550A BS69CC-MYND with EBNA2 in BJAB cells, followed by immunoprecipitation using anti-flag M2-conjugated sepharose and Western blotting with antibodies against EBNA2 and M2, respectively. […] In addition, the immunofluorescence (IF) image pointed to a reduction of large amount of BS69 expression in EBV infected B cells at 5 dpi, confirming the barely low expression levels of BS69 shown in Fig 4B.
Co-immunoprecipitation, chromatin immunoprecipitation (ChIP), and western blot analyses
The transfection-mediated co-immunoprecipitation (Co-IP) assay was employed to identify the physical interaction of EBNA2 with BS69CC-MYND using EBV-negative B lymphoma cells (BJAB). Cells were co-transfected with the expression plasmids of EBNA2 (E2) and flag- BS69CC-MYND wild type, Q546A mutant (Q546A), or Q546A/W550A mutant (Q546A/W550A) and subjected to IP analysis using M2-conjugated sepharose (Sigma). […] The proteins were detected and visualized using an ECL detection kit (Millipore). […] The protein levels of endogenous BS69 in the obtained cell lines were determined by Western blot using BS69 antibody (Santa Cruz biotechnology). […] The proteins were detected and visualized using an ECL detection kit (Millipore).

[4] = system: G5-TK-Luc reporter, Gal4-EBNA2 transcriptional activation; experiment: G5-TK-Luc reporter assay with Gal4-EBNA2 in HeLa cells; assay type: cell-based; details: 10 ng BS69CC-MYND expression vector, relative to no Gal4 activator (set to 1), means of minimum 3 independent experiments each in triplicates
Description: as §1
The BS69CC-MYND dual domain, wild-type or the Q546A mutant, were inserted into a pCBS/FLAG mammalian expression vector [54], in which the BS69 fragments are preceded by a FLAG-tag. In the case of the Q546A/W550A BS69CC-MYND expression plasmid, the flanking DNA fragment was subcloned into the pSG5-Flag vector [55]. The EBNA2 expression vector harboring PXLXP1 or PXLXP2 mutations was generated by carrying out the PCR-based mutagenesis protocol provided by the manufactory (Stratagene). In each case, the codons of two prolines were replaced with the codons of alanine simultaneously. […]
Supplementary file ppat.1005414.s003.tif: S3 Fig In vivo transcription assays of G5-TK-Luc reporter gene. (A) The expression of Flag-tagged wild-type or Q546A BS69CC-MYND in HeLa cells was analyzed by Western blotting using anti-flag M2 monoclonal antibody. […] (B) Relative transcription activation by GAL4 DBD, Gal4-EBNA2 and Gal4-VP16 was analyzed in transfected HeLa cells in the absence or presence of 10 ng expression vector for wild-type BS69CC-MYND or its Q546A mutant. […]

LMP1-DNA (LMP1 promoter) = experiment: ChIP at LMP1 promoter DNA in transfected BJAB cells; assay type: cell-based, Epstein-Barr virus; details: M2 ChIP
Description: To determine whether BS69CC-MYND is able to associate with EBNA2 target promoters through protein-protein interactions, we performed Chromatin Immunoprecipitation (ChIP) assays using BJAB cells, in which flag-tagged wild-type, Q546A, or […] BS69CC-MYND was co-transfected with or without EBNA2 expression vector and a reporter plasmid containing the LMP1 promoter, LMP1-Luc. […] On the other hand, an EBNA2 ChIP brought down ~13% of LMP1-DNA, consistent with the fact that LMP1 is one of the target sites of EBNA2 [35, 36].
5x10^4/per 100 μl primary B cells were cultured in RPMI 1640 supplemented with 15% fetal calf serum (FCS), 2 mM L-glutamine, and penicillin/streptomycin, and aliquoted into a 96-well plate. […] Cells were collected at 0, 1, 3, 5, and 7 days of post-infection (dpi) and BS69 mRNA expression in virus or mock -infected B cells were determined as the relative expression levels versus GAPDH by quantitative reverse transcription real time PCR (qRT-PCR). […] The amount of ChIPed DNA was quantified by real time PCR and represented as % of input DNA. […]
The transfection-mediated co-immunoprecipitation (Co-IP) assay was employed to identify the physical interaction of EBNA2 with BS69CC-MYND using EBV-negative B lymphoma cells (BJAB). […] The proteins were detected and visualized using an ECL detection kit (Millipore). […]

cancer cell growth = details: in vitro and in vivo; cited from earlier work
Description: BS69 (ZMYND11) is an emerging tumor suppressor [19–21] that was originally identified as the Adenovirus protein E1A and EBNA2-interacting protein [22, 23]. […] BS69 contains, in addition to a C-terminal MYND (MYeloid translocation protein 8, Nervy and DEAF-1) domain, an N-terminal Plant Homo Domain (PHD) zinc finger, a Bromo domain and a PWWP domain.

[5] = system: EBNA1-mediated transcriptional activation of OriP-Luc reporter; experiment: OriP-Luc reporter assay (EBNA1-mediated transcription); assay type: cell-based, Epstein-Barr virus; details: 10 μg EBNA1 expression plasmid, 5 μg OriP-Luc reporter
Description: as §1, §2

EBNA2 [6] = experiment: Confocal immunofluorescence of EBNA2 and BS69 in EBV-infected B cells; assay type: cell-based, Epstein-Barr virus; details: EBV infected B cells at 1 and 3 dpi
Method: 5x10^4/per 100 μl primary B cells were cultured in RPMI 1640 supplemented with 15% fetal calf serum (FCS), 2 mM L-glutamine, and penicillin/streptomycin, and aliquoted into a 96-well plate. 100 μL previously purified EBV [52] or PBS (mock infection) was utilized as the inoculum. Cells were collected at 0, 1, 3, 5, and 7 days of post-infection (dpi) and BS69 mRNA expression in virus or mock -infected B cells were determined as the relative expression levels versus GAPDH by quantitative reverse transcription real time PCR (qRT-PCR). For Western blot analysis, a total of 5x10^5 B cells with EBV infection were collected at 0, 1, 4, and 7 dpi, respectively. The primers for BS69 are […] (F) and […] (R), whereas the primers for GAPDH internal control are […] (F) and […] (R). The primers for chromatin immunoprecipitati on assays of the LMP1 promoter and GAPDH promoter control have been described previously. The amount of ChIPed DNA was quantified by real time PCR and represented as % of input DNA. For Immunofluorescence analysis (IFA), cells were fixed in 2% paraformaldehyde (Sigma) and subjected to an immunostaining protocol using antibodies for BS69 (Santa Cruz), and EBNA2 (Santa Cruz). […]

Molecule	relative transcriptional activation by EBNA2 in presence of BS69CC-MYND, LMP1-Luc [1]	relative transcriptional activation by EBNA2 in presence of BS69CC-MYND, Cp-Luc [2]	EBNA2 co-precipitation (EBNA2 [3])	activation of G5-TK-Luc by Gal4-EBNA2 in presence of BS69CC-MYND [4]	ChIPed LMP1-DNA (LMP1-DNA (LMP1 promoter); absence of EBNA2 (similar to IgG negative control))	ChIPed LMP1-DNA (LMP1-DNA (LMP1 promoter); presence of EBNA2, % of input DNA)	effect of BS69 overexpression on cancer cell growth (cancer cell growth)	suppression of EBNA1-mediated transcriptional activation of OriP-Luc [5]	colocalization of EBNA2 and BS69 (EBNA2 [6])
B1	≤ 2 fold	≤ 2 fold	EBNA2 co-precipitates with wild-type flag-tagged BS69CC-MYND	less than 4 fold	7–8 % over input DNA	~ 17%			
B2							suppresses cancer cell growth both in vitro and in vivo	failed to suppress	colocalization of EBNA2 and BS69 appeared
